Measured values from FireProtDB (doi:10.1038/nsb0196-54).

B1: Regulatory protein rop, P03051 (parent)
chain: MTKQEKTALNMARFIRSQTLTLLEKLNELDADEQADICESLHDHADELYRSCLARFGDDGENL

Variants of: B1
Conditions: Escherichia coli, pH 7, Thermal, CD, Sodium phosphate 10 mM, NaCl 350 mM, structure 1ROP, whole UniProt chain shown; for ddG of mutation (higher = less stable): 69 °C

Variant | ddG of mutation (higher = less stable) | Tm | change of melting temperature, mutant - wild type (higher = more stable)
MTKQEKTALNMARFIRSQTLTLLEKLNELSADEQADICESLHDHADELYRSCLARFGDDGENL [D30S] | -4.18 kJ/mol | 74.7 °C | 6 °C
MTKQEKTALNMARFIRSQTLTLLEKLNELAADEQADICESLHDHADELYRSCLARFGDDGENL [D30A] | -1.26 kJ/mol | 71.2 °C | 2.5 °C
MTKQEKTALNMARFIRSQTLTLLEKLNELRADEQADICESLHDHADELYRSCLARFGDDGENL [D30R] | -3.35 kJ/mol | – | –
MTKQEKTALNMARFIRSQTLTLLEKLNELFADEQADICESLHDHADELYRSCLARFGDDGENL [D30F] | 0.418 kJ/mol | 68.3 °C | -0.4 °C
MTKQEKTALNMARFIRSQTLTLLEKLNELIADEQADICESLHDHADELYRSCLARFGDDGENL [D30I] | 3.35 kJ/mol | 63.4 °C | -5.3 °C
MTKQEKTALNMARFIRSQTLTLLEKLNELLADEQADICESLHDHADELYRSCLARFGDDGENL [D30L] | 0.418 kJ/mol | 68.4 °C | -0.3 °C
MTKQEKTALNMARFIRSQTLTLLEKLNELVADEQADICESLHDHADELYRSCLARFGDDGENL [D30V] | 1.67 kJ/mol | 66.6 °C | -2.1 °C
MTKQEKTALNMARFIRSQTLTLLEKLNELWADEQADICESLHDHADELYRSCLARFGDDGENL [D30W] | 1.67 kJ/mol | 65.9 °C | -2.8 °C
MTKQEKTALNMARFIRSQTLTLLEKLNELTADEQADICESLHDHADELYRSCLARFGDDGENL [D30T] | 1.67 kJ/mol | 66.6 °C | -2.1 °C
MTKQEKTALNMARFIRSQTLTLLEKLNELQADEQADICESLHDHADELYRSCLARFGDDGENL [D30Q] | -7.53 kJ/mol | 79.1 °C | 10.4 °C
MTKQEKTALNMARFIRSQTLTLLEKLNELHADEQADICESLHDHADELYRSCLARFGDDGENL [D30H] | -3.77 kJ/mol | 74.5 °C | 5.8 °C
MTKQEKTALNMARFIRSQTLTLLEKLNELYADEQADICESLHDHADELYRSCLARFGDDGENL [D30Y] | -0.837 kJ/mol | 70.4 °C | 1.7 °C
MTKQEKTALNMARFIRSQTLTLLEKLNELPADEQADICESLHDHADELYRSCLARFGDDGENL [D30P] | 6.69 kJ/mol | 58.9 °C | -9.8 °C
MTKQEKTALNMARFIRSQTLTLLEKLNELCADEQADICESLHDHADELYRSCLARFGDDGENL [D30C] | -3.35 kJ/mol | 74 °C | 5.3 °C
MTKQEKTALNMARFIRSQTLTLLEKLNELEADEQADICESLHDHADELYRSCLARFGDDGENL [D30E] | -4.18 kJ/mol | 74.9 °C | 6.2 °C
MTKQEKTALNMARFIRSQTLTLLEKLNELMADEQADICESLHDHADELYRSCLARFGDDGENL [D30M] | -2.51 kJ/mol | 72.7 °C | 4 °C
MTKQEKTALNMARFIRSQTLTLLEKLNELNADEQADICESLHDHADELYRSCLARFGDDGENL [D30N] | -3.35 kJ/mol | 73.8 °C | 5.1 °C
MTKQEKTALNMARFIRSQTLTLLEKLNELGADEQADICESLHDHADELYRSCLARFGDDGENL [D30G] | -8.37 kJ/mol | 80.3 °C | 11.6 °C
MTKQEKTALNMARFIRSQTLTLLEKLNELKADEQADICESLHDHADELYRSCLARFGDDGENL [D30K] | -3.77 kJ/mol | 74.6 °C | 5.9 °C
